Source: patent US20180155451A1 (published 2018)

T1: FcγRIIa H (FcγRIIa, type H allotype, His at position 131), extracellular domain with C-terminal His tag (human, UniProt P12318 34-217)
T1 construct: extracellular domain; Soluble receptor expressed in FreeStyle293 cells; analyte in Biacore; also called FcgRIIa H; 2aH; not shown: C-terminal His tag
T1 sequence (looked up): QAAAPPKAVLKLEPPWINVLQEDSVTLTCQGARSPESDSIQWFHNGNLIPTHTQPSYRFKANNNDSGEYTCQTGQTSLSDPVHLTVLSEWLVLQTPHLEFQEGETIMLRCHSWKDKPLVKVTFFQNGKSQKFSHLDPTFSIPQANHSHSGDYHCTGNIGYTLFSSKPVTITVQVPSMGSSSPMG

T2: FcγRIIb, extracellular domain with C-terminal His tag (human, UniProt P31994 43-217)
T2 construct: extracellular domain; Soluble receptor expressed in FreeStyle293 cells; analyte in Biacore; also called FcgRIIb; 2b; not shown: C-terminal His tag
T2 sequence (looked up): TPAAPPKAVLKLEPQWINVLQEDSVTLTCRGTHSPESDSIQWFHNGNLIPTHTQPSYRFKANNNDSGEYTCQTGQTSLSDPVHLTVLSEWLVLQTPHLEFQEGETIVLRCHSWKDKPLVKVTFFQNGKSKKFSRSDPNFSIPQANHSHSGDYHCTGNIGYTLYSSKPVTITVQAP

B1: GpH7-A5/GpH7-B3 variant D270_01G/GpL16-k0 (antibody, human IgG1, kappa)
heavy 1: not shown
heavy 2: not shown
light: DIVMTQSPLSLPVTPGEPASISCQASESLVHSNRNTYLHWYLQKPGQSPQLLIYKVSNRFSGVPDRFSGSGSGTDFTLKISRVEAEDVGVYYCSQNTHVPPTFGQGTKVEIERTVAAPSVFIFPPSDEQLKSGTASVVCLLNNFYPREAKVQWKVDNALQSGNSQESVTEQDSKDSTYSLSSTLTLSKADYEKHKVYACEVTHQGLSSPVTKSFNRGEC
notes: Heterodimerized IgG1; mutation only in the GpH7-B3 chain; also called He Ab
B2: GpH7-A5/GpH7-B3 variant D270_02A/GpL16-k0 (antibody, human IgG1, kappa)
heavy 1: not shown
heavy 2: not shown
light: B1 light
notes: as for B1
B3: GpH7-A5/GpH7-B3 variant E269_12R/GpL16-k0 (antibody, human IgG1, kappa)
heavy 1: not shown
heavy 2: not shown
light: B1 light
notes: as for B1
B4: GpH7-A5/GpH7-B3 variant E269_06M/GpL16-k0 (antibody, human IgG1, kappa)
heavy 1: not shown
heavy 2: not shown
light: B1 light
notes: as for B1
B5: GpH7-A5/GpH7-B3 variant E269_13S/GpL16-k0 (antibody, human IgG1, kappa)
heavy 1: not shown
heavy 2: not shown
light: B1 light
notes: as for B1
B6: GpH7-A5/GpH7-B3 variant E269_04F/GpL16-k0 (antibody, human IgG1, kappa)
heavy 1: not shown
heavy 2: not shown
light: B1 light
notes: as for B1
B7: GpH7-A5/GpH7-B3 variant E269_11K/GpL16-k0 (antibody, human IgG1, kappa)
heavy 1: not shown
heavy 2: not shown
light: B1 light
notes: as for B1
B8: GpH7-A5/GpH7-B3 variant D270_20W/GpL16-k0 (antibody, human IgG1, kappa)
heavy 1: not shown
heavy 2: not shown
light: B1 light
notes: as for B1
B9: GpH7-A5/GpH7-B3 variant E269_02A/GpL16-k0 (antibody, human IgG1, kappa)
heavy 1: not shown
heavy 2: not shown
light: B1 light
notes: as for B1
B10: GpH7-A5/GpH7-B3 variant D270_12R/GpL16-k0 (antibody, human IgG1, kappa)
heavy 1: not shown
heavy 2: not shown
light: B1 light
notes: as for B1
B11: GpH7-A5/GpH7-B3 variant D270_10E/GpL16-k0 (antibody, human IgG1, kappa)
heavy 1: not shown
heavy 2: not shown
light: B1 light
notes: as for B1
B12: GpH7-A5/GpH7-B3 variant D270_06M/GpL16-k0 (antibody, human IgG1, kappa)
heavy 1: not shown
heavy 2: not shown
light: B1 light
notes: as for B1
B13: GpH7-A5/GpH7-B3 variant E269_07I/GpL16-k0 (antibody, human IgG1, kappa)
heavy 1: not shown
heavy 2: not shown
light: B1 light
notes: as for B1
B14: GpH7-A5/GpH7-B3 variant D270_11K/GpL16-k0 (antibody, human IgG1, kappa)
heavy 1: not shown
heavy 2: not shown
light: B1 light
notes: as for B1
B15: GpH7-A5/GpH7-B3 variant D270_15Y/GpL16-k0 (antibody, human IgG1, kappa)
heavy 1: not shown
heavy 2: not shown
light: B1 light
notes: as for B1
B16: GpH7-A5/GpH7-B3 variant D270_13S/GpL16-k0 (antibody, human IgG1, kappa)
heavy 1: not shown
heavy 2: not shown
light: B1 light
notes: as for B1
B17: GpH7-A5/GpH7-B3 variant E269_14T/GpL16-k0 (antibody, human IgG1, kappa)
heavy 1: not shown
heavy 2: not shown
light: B1 light
notes: as for B1
B18: GpH7-A5/GpH7-B3 variant D270_08L/GpL16-k0 (antibody, human IgG1, kappa)
heavy 1: not shown
heavy 2: not shown
light: B1 light
notes: as for B1
B19: GpH7-A5/GpH7-B3 variant D270_16H/GpL16-k0 (antibody, human IgG1, kappa)
heavy 1: not shown
heavy 2: not shown
light: B1 light
notes: as for B1
B20: GpH7-A5/GpH7-B3 variant D270_14T/GpL16-k0 (antibody, human IgG1, kappa)
heavy 1: not shown
heavy 2: not shown
light: B1 light
notes: as for B1
B21: GpH7-A5/GpH7-B3 variant E269_03V/GpL16-k0 (antibody, human IgG1, kappa)
heavy 1: not shown
heavy 2: not shown
light: B1 light
notes: as for B1
B22: GpH7-A5/GpH7-B3 variant D270_04F/GpL16-k0 (antibody, human IgG1, kappa)
heavy 1: not shown
heavy 2: not shown
light: B1 light
notes: as for B1
B23: GpH7-A5/GpH7-B3 variant D270_07I/GpL16-k0 (antibody, human IgG1, kappa)
heavy 1: not shown
heavy 2: not shown
light: B1 light
notes: as for B1
B24: GpH7-A5/GpH7-B3 variant D270_19Q/GpL16-k0 (antibody, human IgG1, kappa)
heavy 1: not shown
heavy 2: not shown
light: B1 light
notes: as for B1
B25: GpH7-A5/GpH7-B3 variant D270_18N/GpL16-k0 (antibody, human IgG1, kappa)
heavy 1: not shown
heavy 2: not shown
light: B1 light
notes: as for B1
B26: GpH7-A5/GpH7-B3 variant E269_08L/GpL16-k0 (antibody, human IgG1, kappa)
heavy 1: not shown
heavy 2: not shown
light: B1 light
notes: as for B1
B27: GpH7-A5/GpH7-B3 variant D270_03V/GpL16-k0 (antibody, human IgG1, kappa)
heavy 1: not shown
heavy 2: not shown
light: B1 light
notes: as for B1

target: T1, FcγRIIa H (FcγRIIa, type H allotype, …); assay: ratio of He/Con_2aH to He/Con_2b (FcγRIIa H over FcγRIIb), SPR

| Binder | He_2aH/2b (IIaH/IIb) |
| --- | --- |
| B1 | 1.72 |
| B2 | 1.58 |
| B3 | 1.86 |
| B4 | 1.58 |
| B5 | 1.46 |
| B6 | 1.52 |
| B7 | 2.87 |
| B8 | 1.74 |
| B9 | 1.56 |
| B10 | 2.16 |
| B11 | 1.34 |
| B12 | 1.54 |
| B13 | 1.52 |
| B14 | 2.17 |
| B15 | 1.6 |
| B16 | 1.61 |
| B17 | 1.37 |
| B18 | 1.41 |
| B19 | 1.51 |
| B20 | 1.3 |
| B21 | 1.49 |
| B22 | 1.42 |
| B23 | 1.54 |
| B24 | 1.77 |
| B25 | 1.55 |
| B26 | 1.57 |
| B27 | 1.56 |

target: T1, FcγRIIa H (FcγRIIa, type H allotype, …); assay: SPR (Biacore), captured antibody, FcγR as analyte

| Binder | He/Con_2aH |
| --- | --- |
| B1 | 52.5 relative, GpH7-A5/GpH7-B3/GpL16-k0 = 100 |
| B2 | 76.4 relative, GpH7-A5/GpH7-B3/GpL16-k0 = 100 |
| B3 | 46.8 relative, GpH7-A5/GpH7-B3/GpL16-k0 = 100 |
| B4 | 73.6 relative, GpH7-A5/GpH7-B3/GpL16-k0 = 100 |
| B5 | 70 relative, GpH7-A5/GpH7-B3/GpL16-k0 = 100 |
| B6 | 68.5 relative, GpH7-A5/GpH7-B3/GpL16-k0 = 100 |
| B7 | 51.1 relative, GpH7-A5/GpH7-B3/GpL16-k0 = 100 |
| B8 | 60.2 relative, GpH7-A5/GpH7-B3/GpL16-k0 = 100 |
| B9 | 77.8 relative, GpH7-A5/GpH7-B3/GpL16-k0 = 100 |
| B10 | 39.5 relative, GpH7-A5/GpH7-B3/GpL16-k0 = 100 |
| B11 | 102 relative, GpH7-A5/GpH7-B3/GpL16-k0 = 100 |
| B12 | 74.4 relative, GpH7-A5/GpH7-B3/GpL16-k0 = 100 |
| B13 | 66.6 relative, GpH7-A5/GpH7-B3/GpL16-k0 = 100 |
| B14 | 44 relative, GpH7-A5/GpH7-B3/GpL16-k0 = 100 |
| B15 | 71.9 relative, GpH7-A5/GpH7-B3/GpL16-k0 = 100 |
| B16 | 71.2 relative, GpH7-A5/GpH7-B3/GpL16-k0 = 100 |
| B17 | 69.6 relative, GpH7-A5/GpH7-B3/GpL16-k0 = 100 |
| B18 | 75.8 relative, GpH7-A5/GpH7-B3/GpL16-k0 = 100 |
| B19 | 71.5 relative, GpH7-A5/GpH7-B3/GpL16-k0 = 100 |
| B20 | 75.3 relative, GpH7-A5/GpH7-B3/GpL16-k0 = 100 |
| B21 | 67.5 relative, GpH7-A5/GpH7-B3/GpL16-k0 = 100 |
| B22 | 75.4 relative, GpH7-A5/GpH7-B3/GpL16-k0 = 100 |
| B23 | 64 relative, GpH7-A5/GpH7-B3/GpL16-k0 = 100 |
| B24 | 85 relative, GpH7-A5/GpH7-B3/GpL16-k0 = 100 |
| B25 | 62.5 relative, GpH7-A5/GpH7-B3/GpL16-k0 = 100 |
| B26 | 67.4 relative, GpH7-A5/GpH7-B3/GpL16-k0 = 100 |
| B27 | 61.8 relative, GpH7-A5/GpH7-B3/GpL16-k0 = 100 |

target: T2, FcγRIIb, extracellular domain with …; assay: SPR (Biacore), captured antibody, FcγR as analyte

| Binder | He/Con_2b |
| --- | --- |
| B1 | 30.5 relative, GpH7-A5/GpH7-B3/GpL16-k0 = 100 |
| B2 | 48.3 relative, GpH7-A5/GpH7-B3/GpL16-k0 = 100 |
| B3 | 25.2 relative, GpH7-A5/GpH7-B3/GpL16-k0 = 100 |
| B4 | 46.7 relative, GpH7-A5/GpH7-B3/GpL16-k0 = 100 |
| B5 | 47.8 relative, GpH7-A5/GpH7-B3/GpL16-k0 = 100 |
| B6 | 45 relative, GpH7-A5/GpH7-B3/GpL16-k0 = 100 |
| B7 | 17.8 relative, GpH7-A5/GpH7-B3/GpL16-k0 = 100 |
| B8 | 34.7 relative, GpH7-A5/GpH7-B3/GpL16-k0 = 100 |
| B9 | 49.9 relative, GpH7-A5/GpH7-B3/GpL16-k0 = 100 |
| B10 | 18.3 relative, GpH7-A5/GpH7-B3/GpL16-k0 = 100 |
| B11 | 76.5 relative, GpH7-A5/GpH7-B3/GpL16-k0 = 100 |
| B12 | 48.2 relative, GpH7-A5/GpH7-B3/GpL16-k0 = 100 |
| B13 | 43.9 relative, GpH7-A5/GpH7-B3/GpL16-k0 = 100 |
| B14 | 20.3 relative, GpH7-A5/GpH7-B3/GpL16-k0 = 100 |
| B15 | 44.9 relative, GpH7-A5/GpH7-B3/GpL16-k0 = 100 |
| B16 | 44.2 relative, GpH7-A5/GpH7-B3/GpL16-k0 = 100 |
| B17 | 50.6 relative, GpH7-A5/GpH7-B3/GpL16-k0 = 100 |
| B18 | 53.6 relative, GpH7-A5/GpH7-B3/GpL16-k0 = 100 |
| B19 | 47.2 relative, GpH7-A5/GpH7-B3/GpL16-k0 = 100 |
| B20 | 57.8 relative, GpH7-A5/GpH7-B3/GpL16-k0 = 100 |
| B21 | 45.1 relative, GpH7-A5/GpH7-B3/GpL16-k0 = 100 |
| B22 | 53.1 relative, GpH7-A5/GpH7-B3/GpL16-k0 = 100 |
| B23 | 41.5 relative, GpH7-A5/GpH7-B3/GpL16-k0 = 100 |
| B24 | 48 relative, GpH7-A5/GpH7-B3/GpL16-k0 = 100 |
| B25 | 40.3 relative, GpH7-A5/GpH7-B3/GpL16-k0 = 100 |
| B26 | 42.9 relative, GpH7-A5/GpH7-B3/GpL16-k0 = 100 |
| B27 | 39.5 relative, GpH7-A5/GpH7-B3/GpL16-k0 = 100 |
